Results published in patent US20040038205A1.

Target: natural cellular receptor for the adenoviral fiber on 293 cells (human (293 human line)) (UniProt P78310)
Assay: cell-based or functional assay

Chain of UniProt P78310 (P78310 20-365): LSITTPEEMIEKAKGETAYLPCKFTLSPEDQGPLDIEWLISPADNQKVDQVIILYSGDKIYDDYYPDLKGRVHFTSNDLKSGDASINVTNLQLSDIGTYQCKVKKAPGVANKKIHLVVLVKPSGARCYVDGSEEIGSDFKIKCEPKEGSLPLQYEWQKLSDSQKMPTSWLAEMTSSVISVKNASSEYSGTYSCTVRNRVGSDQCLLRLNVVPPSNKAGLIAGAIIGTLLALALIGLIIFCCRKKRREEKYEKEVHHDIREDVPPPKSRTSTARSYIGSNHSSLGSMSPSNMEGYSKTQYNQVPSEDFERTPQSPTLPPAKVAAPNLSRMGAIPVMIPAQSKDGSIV

**Q.** For “native Ad5 fiber carried by the recombinant virus AdLacZ (from UniProt P11818 1-581)”, which degree of inhibition of infection of 293 cells with AdLacZ by recombinant Ad5 knob at 100 µg/ml (LacZ-positive cells) is on record?
**A.** The degree of inhibition of infection of 293 cells with AdLacZ by recombinant Ad5 knob at 100 µg/ml (LacZ-positive cells) was 95%.
